The results in this text go back to US20180339020A1.

This assay concerns the target ephrin B3 expressed on CHO cells. As to the kind of experiment: inferred by the filing from ELISA, Octet and flow cytometry taken together. Background: In an ELISA, binding on a coated surface is turned into a signal by an enzyme label.

“wild-type (WT) human EphA4-Fc (Fc fusion)” gave a concentration that would saturate of more than 10 µg/mL.
